Target: the molecule itself
Assay: SEC; MK-Ctd and its loop variants; Superdex 75 10/300 GL; 20 mM Tris-HCl, 500 mM GdnHCl, pH 8; monomer to dimer

Row | Protein | stoichiometry N
1 | L1MK-Ctd (MK-Ctd with QVVAG engineered into loop1) (domain or fragment) MVPSRFEDVRVVQVVAGWRVSVKIAETEEGEVVTVKAEFDECREIGEETGIPPREVKAMVEAAARVGGWVDLKEREIKVQEG | 2
2 | L1MK-Ctd* (L1MK-Ctd with QVVAG mutated to QVNAG) (domain or fragment) MVPSRFEDVRVVQVNAGWRVSVKIAETEEGEVVTVKAEFDECREIGEETGIPPREVKAMVEAAARVGGWVDLKEREIKVQEG | 2
